{
  "source": "patent US7053044B1",
  "about": "“Artificial peptides having surface activity and the use thereof in the preparation of artificial surfactant” (Chiesi Farmaceutici S.p.A., priority 1999, dated 2006)",
  "key": {"[1]": {"assay": "Preparation of peptide/lipid mixtures (attainable lipid concentration)", "format": "physicochemical", "details": "polypeptide/lipid ratio of 0.03", "protocol": "DPPC, PG and PA were all purchased from Sigma Chemical Co. (St Louis, Mo.). The lipids, dissolved in chloroform/methanol 98:2 (v/v), were mixed in the proportions DPPC:PG:PA 68:22:9 (w/w/w) or DPPC/PG 7:3 (w/w). Surfactant preparations were prepared by adding SP-C(LKS) alone or SP-C(LKS) and SP-B, to each of the lipid mixtures, at total polypeptide/lipid weight ratios of 0–0.05. The mixtures were evaporated under nitrogen and resuspended in 150 mmol/l NaCl or in 10 mmol/l Hepes buffer pH 6,9 containing 140 mmol/l NaCl and 2.0 mmol/l CaCl2, at lipid concentrations of 10–80 mg/ml. Repeated freezing and sonication (50 W, 48 kHz) were performed until homogeneous suspensions were achieved. In some cases the final suspensions were incubated at 45° C. for 1 h."}, "[2]": {"assay": "Peptide secondary structure by circular dichroism (CD) spectroscopy", "format": "physicochemical", "protocol": "Peptide secondary structure was investigated using circular dichroism (CD) spectroscopy (Jasco-720 Jasco, Japan). After solubilisation with triflouroethanol (TFE) spectra were recorded from 260 to 184 nm with a scan speed of 20 nm/min and a resolution of 2 data points/nm. The residual molar ellipticy was calculated and expressed in kdeg×cm^2/dmol. Molar ellipticities at 208 and 222 nm were utilised for estimating the content of helical structure (Barrow, C. J. et al. (1992) J. Mol. Biol. 225, 1075–1093)."}, "[3]": {"assay": "SDS-PAGE (oligomer formation)", "format": "physicochemical", "source_text": "The purity of the peptide was checked by sodium-dodecylsulphate (SDS) polyacrylamide gel electrophoresis (PAGE) (Phast-system, Pharmacia, Sweden) and by reversed phase high performance liquid chromatography (HPLC), using a C18 column and a linear gradient of 60% aqueous methanol/0.1% TFA and isopropanol/0.1% TFA (Gustafsson, M. et al. (1997) Biochem. J. 326, 799–806)."}, "[4]": {"details": "Nilsson, G. et al. (1998) Eur. J. Biochem. 255, 116–124; cited from earlier work"}, "[5]": {"assay": "Surface film stability, captive bubble system", "format": "physicochemical", "details": "surfactant mixtures, samples containing 5% of peptide", "protocol": "In an even more preferred embodiment of the invention, surfactant mixtures containing the peptide in which palmitoyl chains are O-covalently linked to the Ser residues should be used. […] In the samples containing 5% of dipalmitoylated peptide, the γmin was below 1.5 mN/m and the films very stable, as the surface tension increased by less than 0.5 mN/m within 10 min at constant bubble volume."}, "[6]": {"molecular_target": "the molecule itself", "assay": "SDS-PAGE, self-association (oligomerisation)"}},
  "note": "Ends that are not written are not given here.",
  "data": [
    {"molecule": "FGIPSSPVHLKRLLILKLLLLKILLLKLGALLMGL [SP-C(LKS), SP-C analogue: Val 16–28 replaced with Leu, Lys at 17, 22, 27, Cys 5 and 6 replaced with Ser]", "values": [
      {"measurement": "lipid concentration of peptide/lipid mixture that could be made", "setting": "[1]", "value": 80, "unit": "mg/mL"},
      {"measurement": "α-helical content", "setting": "[2]; solubilised in TFE, estimated from the 208 nm and 222 nm minima", "value": "approximately 75%"},
      {"measurement": "secondary structure on dilution", "setting": "[2]; stepwise dilution with H2O until 12% TFE, peptide solubilized in neat TFE", "value": "remained stable"},
      {"measurement": "SDS-PAGE pattern (oligomerisation)", "setting": "[3]", "value": "single band"}
    ]},
    {"molecule": "SP-C(Leu): reference peptide; transmembranous SP-C analogue with all helical Val residues replaced with Leu (Nilsson et al.) (FGIPSSPVLKRLLILLLLLLLILLLILGALLMGL)", "values": [
      {"measurement": "SDS-PAGE pattern (oligomerisation)", "setting": "[3]", "value": "forms oligomers"},
      {"measurement": "highest concentration of lipid-peptide mixture that can be prepared / solubilized", "setting": "[4]", "value": "≤ 20", "unit": "mg/mL"},
      {"measurement": "γmin (captive bubble system)", "setting": "[5]", "value": "approx. 5 mN/m"}
    ]},
    {"molecule": "FGIPSSPVHLKRLLILKLLLLKILLLKLGALLMGL (ends and bridges not checked, The non-acylated form was run in SDS-PAGE; also called analogue of SP-C)", "note": "[SP-C(LKS)]", "values": [
      {"measurement": "binding result", "setting": "[6]", "value": "no binding"}
    ]}
  ]
}
